Experimental data from US6689574B1, “Assays for nuclear receptor agonists and antagonists using fluorescence resonance energy transfer” (Merck & Co., Inc., priority 1997, dated 2004).
Values belong to the molecule of their own block, whether it stands above or below them.

B1: Eu3+K-labeled hCBP1-113 (NH2-terminal amino acids 1-113 of human CBP, cleaved from GST with thrombin, directly labeled with europium cryptate) (other)
chain: MAENLLDGPPNPKRAKLSSPGFSANDSTDFGSLFDLENDLPDELIPNGGELGLLNSGNLVPDAASKHKQLSELLRGGSGSSINPGIGNVSASSPVQQGLGGQAQGQPNSANMA
modifications: directly labeled with europium cryptate (Eu3+K); labeled residues not stated
notes: Made as a GST fusion in E. coli (pGEX) and cleaved with thrombin; The preparation gave two bands, 12 kd (expected) and 10 kd (likely a premature termination product)
B2: GST-hCBP1-113 (glutathione S-transferase fused to amino acids 1-113 of human CBP) (other)
chain: B1 chain
notes: Uncleaved fusion, detected in the assay by Eu3+K-labeled goat anti-GST antibody (Pharmacia 27-4577-01); also called GST-CBP fusion protein; not shown: glutathione S-transferase (GST) of the pGEX expression vector (Pharmacia Biotech); pGEX linker with thrombin site between GST and CBP
B3: GST-hPPARγ1LBD (glutathione S-transferase fused to amino acids 176-478 of human PPARγ1) (receptor)
chain: SHNAIRFGRIAQAEKEKLLAEISSDIDQLNPESADLRQALAKHLYDSYIKSFPLTKAKARAILTGKTTDKSPFVIYDMNSLMMGEDKIKFKHITPLQEQSKEVAIRIFQGCQFRSVEAVQEITEYAKSIPGFVNLDLNDQVTLLKYGVHEIIYTMLASLMNKDGVLISEGQGFMTREFLKSLRKPFGDFMEPKFEFAVKFNALELDDSDLAIFIAVIILSGDRPGLLNVKPIEDIQDNLLQALELQLKLNHPESSQLFAKLLQKMTDLRQIVTEHVQLLQVIKKTETDMSLHPLLQEIYKDLY
notes: Uncleaved fusion, detected in the assay by Eu3+K-labeled anti-GST antibody; not shown: glutathione S-transferase (GST) of the pGEX-KG vector (Guan & Dixon 1991); pGEX-KG linker between GST and the LBD
B4: biotin-labeled hPPARγ1LBD (human PPARγ1 ligand binding domain, amino acids 176-478, cleaved free of GST) (receptor)
chain: B3 chain
modifications: biotinylated with Sulfo-NHS-LC-Biotin to a biotin:hPPARγ1LBD ratio of 3:1; sites not stated
notes: Made from pGEX-KG as a GST fusion and cleaved free of GST; In the assay it carried streptavidin-labeled XL665 through the biotin; also called biotin-hPPARγ1LBD

Tests used:
PPARγ1LBD = PPARγ1LBD (Homo sapiens, UniProt P37231); experiment: Binding constant for hCBP/PPARγ1LBD interaction by FRET competition with non-biotinylated hCBP1-453 (FIG. 6); parameters: amino acids 176-478 of PPARγ1; made in house; host or cells: E. coli (DH5α); conditions: saturating PPARγ agonist (10 μM BRL49653); derived from FIG. 6; read-out: Kd for the interaction between hCBP1-453 and PPARγ1LBD
Chain of PPARγ1LBD (P37231 204-505): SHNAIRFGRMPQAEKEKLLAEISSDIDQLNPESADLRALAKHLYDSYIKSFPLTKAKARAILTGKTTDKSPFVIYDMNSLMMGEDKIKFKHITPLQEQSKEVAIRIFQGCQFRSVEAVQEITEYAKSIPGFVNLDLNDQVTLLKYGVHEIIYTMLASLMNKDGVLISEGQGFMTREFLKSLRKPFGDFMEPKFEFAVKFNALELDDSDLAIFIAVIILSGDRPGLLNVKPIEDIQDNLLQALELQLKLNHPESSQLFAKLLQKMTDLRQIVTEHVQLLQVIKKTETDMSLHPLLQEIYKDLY
Chain of PPARγ1LBD (Q92793 1-453 partner): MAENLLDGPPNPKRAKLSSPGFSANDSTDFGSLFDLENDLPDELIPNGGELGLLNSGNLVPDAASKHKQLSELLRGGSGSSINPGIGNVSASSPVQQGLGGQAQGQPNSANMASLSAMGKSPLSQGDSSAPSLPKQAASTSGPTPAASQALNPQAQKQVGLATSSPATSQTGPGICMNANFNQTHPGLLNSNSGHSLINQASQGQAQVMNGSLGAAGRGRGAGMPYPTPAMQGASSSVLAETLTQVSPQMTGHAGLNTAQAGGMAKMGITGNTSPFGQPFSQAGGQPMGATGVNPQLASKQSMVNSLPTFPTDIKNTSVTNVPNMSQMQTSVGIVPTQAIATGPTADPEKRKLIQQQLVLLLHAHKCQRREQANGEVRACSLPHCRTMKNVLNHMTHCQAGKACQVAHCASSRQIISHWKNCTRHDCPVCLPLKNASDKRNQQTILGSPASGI
Experimental: The above-described assay can also be used to characterize the interaction between nuclear receptors with co-activators as, e.g., by determining the binding constant for that interaction. […] Saturating amounts of PPARγ agonist (10 μM BRL49653) were used. Increasing concentrations of non-biotinylated hCBP1-453 were used to titrate away biotin-hCBP-PPARγ1LBD complex and decrease the fluorescence energy transfer. A Kd of 300 nM for the interaction between hCBP1-453 and PPARγ1LBD can be derived from the results illustrated in FIG. 6 and this Kd (300 nM) is a measurement of the affinity between CBP and PPARγ.

[1] = molecular target: B4; experiment: FRET, Eu3+K-hCBP1-113 (100 nM) + biotin-hPPARγ1LBD (100 nM) + SA-XL665 (100 nM), 1 µM AD5075, PBS
[2] = molecular target: B4; experiment: FRET, same format without agonist (0.1% DMSO vehicle), PBS; background control
[3] = molecular target: B4; experiment: FRET, Eu3+K-hCBP1-113 + biotin-hPPARγ1LBD + SA-XL665, 1 µM AD5075, HEPES + 0.05% NP40
[4] = molecular target: B4; experiment: FRET, same format without agonist (vehicle), HEPES + 0.05% NP40; background control
[5] = molecular target: B4; experiment: FRET, experiment 3 format, HEPES + 0.05% NP40
Excerpt: (§1) In order to get an even better signal-noise ratio, the above-described format was modified slightly for experiment 3.

[6] = molecular target: B4; experiment: FRET, GST-hCBP1-113 + Eu3+K anti-GST antibody + biotin-hPPARγ1LBD (100 nM) + SA-XL665 (500 nM), 1 µM AD5075, HEPES + 0.05% NP40
Excerpt: as §1

[7] = molecular target: non-biotinylated hCBP1-453 (NH2-terminal amino acids 1-453 of human CBP, cleaved from GST) (human, UniProt Q92793 1-453); experiment: FRET competition: increasing non-biotinylated hCBP1-453 displaces biotin-hCBP from PPARγ1LBD, saturating agonist (10 µM BRL49653)
Experimental: The above-described assay can also be used to characterize the interaction between nuclear receptors with co-activators as, e.g., by determining the binding constant for that interaction. […] Saturating amounts of PPARγ agonist (10 μM BRL49653) were used.

[8] = molecular target: B1; experiment: FRET, Eu3+K-hCBP1-113 + biotin-hPPARγ1LBD + SA-XL665, PBS

Kd (PPARγ1LBD): 300 nM
Molecule: hCBP1-453: NH2-terminal 1-453 amino acids of human CBP, expressed in E. coli as GST fusion and cleaved

Molecule: B1
Emission ratio with AD5075 [1]: 1130 665 nm/620 nm ratio x 10,000
Emission ratio with vehicle [2]: 1070 665 nm/620 nm ratio x 10,000
Emission ratio with AD5075 [3]: 967 665 nm/620 nm ratio x 10,000
Emission ratio with vehicle [4]: 617 665 nm/620 nm ratio x 10,000

Molecule: B2
signal-noise ratio (with AD5075 against without) [5]: 2 fold
Emission ratio with vehicle [4]: 536 665 nm/620 nm ratio x 10,000
Emission ratio with AD5075 [6]: 1080 665 nm/620 nm ratio x 10,000

Molecule: B3
Kd [7]: 300 nM

Molecule: B4
binding result [8]: binds
